For one series, the target named is T1, BT2127 (Bacteroides thetaiotaomicron, UniProt Q8A5V9).
T1 sequence (Q8A5V9 1-224): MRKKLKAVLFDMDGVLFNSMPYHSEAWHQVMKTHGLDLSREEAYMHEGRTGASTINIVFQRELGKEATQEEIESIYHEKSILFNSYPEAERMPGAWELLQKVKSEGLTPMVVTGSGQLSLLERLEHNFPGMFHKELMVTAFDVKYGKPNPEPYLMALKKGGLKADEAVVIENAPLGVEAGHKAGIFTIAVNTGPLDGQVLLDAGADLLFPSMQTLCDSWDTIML
Description: steady-state competitive inhibition of pyrophosphate hydrolysis. The format is biochemical.

Substrate in series [1]: O=P(O)(O)OCC(O)CO
Description: purified protein. Particulars: Mg2+; pH 7.5; 25.0 °C.

Substrate in series [2]: O=[N+]([O-])c1ccc(OP(=O)(O)O)cc1
Description: purified protein. The following applies: Mg2+; pH 7.5; 25.0 °C.

Substrate in series [3]: O=c1ccn([C@@H]2O[C@H](COP(=O)(O)O)[C@@H](O)[C@H]2O)c(=O)[nH]1
Description: purified protein. Particulars: Mg2+; pH 7.5; 25.0 °C.

In general, Ki refers to the equilibrium dissociation constant of an inhibitor or competing ligand from its target. For orientation: Km means the substrate concentration at which the rate is half of its maximum. In general, kcat refers to the number of substrate molecules converted per active site and unit of time at saturation. As usually defined, the kcat/Km is the second-order rate constant that governs catalysis at low substrate concentration.

Consider `O=P(O)(O)NP(=O)(O)O` [imidodiphosphate], for which, at BT2127, affinity was put at a Ki of 13 ± 1 µM.

B1: BT2127 (Bacteroides thetaiotaomicron VPI-5482) (protein)
chain: MRKKLKAVLFDMDGVLFNSMPYHSEAWHQVMKTHGLDLSREEAYMHEGRTGASTINIVFQRELGKEATQEEIESIYHEKSILFNSYPEAERMPGAWELLQKVKSEGLTPMVVTGSGQLSLLERLEHNFPGMFHKELMVTAFDVKYGKPNPEPYLMALKKGGLKADEAVVIENAPLGVEAGHKAGIFTIAVNTGPLDGQVLLDAGADLLFPSMQTLCDSWDTIML
Regarding B1, in “purified protein [1]”, the Michaelis constant (Km) is 4800 ± 300 µM, the turnover number (kcat) came out at 0.35 s⁻¹ and the catalytic efficiency (kcat/Km) worked out at 70 M⁻¹ s⁻¹. Moreover, in the series “purified protein [2]”, the Michaelis-Menten constant (Km) amounted to 50 ± 10 µM, the catalytic constant (kcat) was 0.0019 s⁻¹ and the specificity constant (kcat/Km) was found to be 40 M⁻¹ s⁻¹. Also, in the series “purified protein [3]”, the Michaelis-Menten constant (Km) was found to be 2600 ± 400 µM, the kcat amounted to 0.15 s⁻¹ and the specificity constant (kcat/Km) turned out to be 60 M⁻¹ s⁻¹.

The values are drawn from article PMC3342813 (2011).
